This is an account of results in PMC10791855.

Holding throughout (experiment): SEC; gel filtration on HiPrep 16/60 Sephacryl S-200 HR in 20 mM Tris-HCl, 1.5 M NaCl, 50 mM imidazole, pH 7.4; molecular mass estimated against standard proteins
For assay [1], the target named is Universal stress protein USP28 from Haloferax mediterranei (Haloferax mediterranei).
The target of assay [2] is Universal stress protein USP5 from Haloferax mediterranei (Haloferax mediterranei).
Assay [3] addresses Universal stress protein USP21 from Haloferax mediterranei (Haloferax mediterranei).

For the substance “Universal stress protein USP28 from Haloferax mediterranei (natural protein)”, the stoichiometry N in assay [1] was 2. With “Universal stress protein USP5 from Haloferax mediterranei (natural protein)”, the stoichiometry N in assay [2] was 2. Regarding “Universal stress protein USP21 from Haloferax mediterranei (natural protein)”, the stoichiometry N in assay [3] is 2.

Broadly, the stoichiometry N is a count of units in the complex or per binding partner.
